According to article PMC9848473:

Key:
[1] = target: Bacillus subtilis Rel N-terminal domain region (RelBs^NTD; residues 1 to 373) (Bacillus subtilis); test: ITC; DarB or DarB variants in the syringe at 200 μM, RelBs^NTD or variants in the cell at 15 μM; 25°C; 50 mM Hepes pH 7.5, 500 mM KCl, 500 mM NaCl, 10 mM MgCl2, 1 mM TCEP, 0.002% mellitic acid
[2] = target: RelBs^NTD Y279A (B. subtilis); test: ITC; DarB or DarB variant (200 uM) in the syringe titrated into RelBs^NTD or variant (15 uM) in the cell; 25 °C; 50 mM Hepes pH 7.5, 500 mM KCl, 500 mM NaCl, 10 mM MgCl2, 1 mM TCEP, 0.002% mellitic acid
Rel (Bacillus subtilis) = Rel (Bacillus subtilis) (UniProt O54408); settings: cited from earlier work

| Substance | Kd [1] [µM] | Kd [2] [µM] | Kd (Rel (Bacillus subtilis)) [µM] |
| --- | --- | --- | --- |
| Bacillus subtilis DarB (from UniProt O31698 1-147) (natural protein) | 1.4 | 4 |  |
| DarB (from UniProt O31698) |  |  | 0.65 |
